Assay results reported in US20160272683A1 (Novo Nordisk, published 2016).
Numbered stars: 1 amine (or outer) side, 2 acyl side, 3 side chain; on linkers, the order of the positions; unused ones are H or OH. * marks the point of attachment. C20 diacid = O=C(O)CCCCCCCCCCCCCCCCCCC(=O)*; C18 diacid = O=C(O)CCCCCCCCCCCCCCCCC(=O)*; γGlu = O=C(O)[C@H](CCC(=O)[*:2])N[*:1]

T1: human calcitonin receptor (human, UniProt P30988 25-474)
T1 construct: whole, on cells; also called hCT-R; hCTR
T1 sequence (looked up): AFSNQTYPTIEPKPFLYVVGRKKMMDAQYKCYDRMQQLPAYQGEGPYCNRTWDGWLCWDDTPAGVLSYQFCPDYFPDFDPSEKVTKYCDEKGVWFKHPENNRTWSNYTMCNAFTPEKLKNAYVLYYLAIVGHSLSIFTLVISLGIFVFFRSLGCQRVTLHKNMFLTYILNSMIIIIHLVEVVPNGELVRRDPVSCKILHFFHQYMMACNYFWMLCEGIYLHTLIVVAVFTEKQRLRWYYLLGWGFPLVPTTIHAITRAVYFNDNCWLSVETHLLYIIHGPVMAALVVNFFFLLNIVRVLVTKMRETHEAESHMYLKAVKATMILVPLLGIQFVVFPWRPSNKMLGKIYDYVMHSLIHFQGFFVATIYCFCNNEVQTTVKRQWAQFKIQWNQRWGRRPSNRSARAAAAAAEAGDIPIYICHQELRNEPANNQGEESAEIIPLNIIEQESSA


These binders were tested against T1, human calcitonin receptor (assay: whole-cell competition vs 125I-human calcitonin (Assay VIIa)).
How it was run: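 BHK tk'ts 13 cells stably co-expressing human calcitonin receptor and a CRE-luciferase reporter, seeded overnight at 37 °C. Bound tracer counted by scintillation after cold HBSS washes and NaOH/SDS lysis; IC₅₀ from one-site competition fit taken as receptor affinity.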

| IC50 | Binder |
| --- | --- |
| 0.767 nM | {C18 diacid-γGlu}-ASEVSTAVVGRLSAELHELATLPRTETGSGSP-NH2 (SMILES CC(C)C[C@H](NC(=O)[C@H](CCC(=O)O)NC(=O)[C@H](Cc1c[nH]cn1)NC(=O)[C@H](CC(C)C)NC(=O)[C@H](CCC(=O)O)NC(=O)[C@H](C)NC(=O)[C@H](CO)NC(=O)[C@H](CC(C)C)NC(=O)[C@H](CCCNC(=N)N)NC(=O)CNC(=O)[C@@H](NC(=O)[C@@H](NC(=O)[C@H](C)NC(=O)[C@@H](NC(=O)[C@H](CO)NC(=O)[C@@H](NC(=O)[C@H](CCC(=O)O)NC(=O)[C@H](CO)NC(=O)[C@H](C)NC(=O)CC[C@H](NC(=O)CCCCCCCCCCCCCCCCC(=O)O)C(=O)O)C(C)C)[C@@H](C)O)C(C)C)C(C)C)C(=O)N[C@@H](C)C(=O)N[C@H](C(=O)N[C@@H](CC(C)C)C(=O)N1CCC[C@H]1C(=O)N[C@@H](CCCNC(=N)N)C(=O)N[C@H](C(=O)N[C@@H](CCC(=O)O)C(=O)N[C@H](C(=O)NCC(=O)N[C@@H](CO)C(=O)NCC(=O)N[C@@H](CO)C(=O)N1CCC[C@H]1C(N)=O)[C@@H](C)O)[C@@H](C)O)[C@@H](C)O, also called Ex. #96) [[N-terminal(C18 diacid-gGlu), des1, 5V, 9V, 10V, 30S, 31G]mimylin] |
| 0.541 nM | {C18 diacid-γGlu}-ASELSTAALGRLSAELHELATLPRTETGSESP-NH2 (SMILES CC(C)C[C@H](NC(=O)[C@H](C)NC(=O)[C@H](C)NC(=O)[C@@H](NC(=O)[C@H](CO)NC(=O)[C@H](CC(C)C)NC(=O)[C@H](CCC(=O)O)NC(=O)[C@H](CO)NC(=O)[C@H](C)NC(=O)CC[C@H](NC(=O)CCCCCCCCCCCCCCCCC(=O)O)C(=O)O)[C@@H](C)O)C(=O)NCC(=O)N[C@@H](CCCNC(=N)N)C(=O)N[C@@H](CC(C)C)C(=O)N[C@@H](CO)C(=O)N[C@@H](C)C(=O)N[C@@H](CCC(=O)O)C(=O)N[C@@H](CC(C)C)C(=O)N[C@@H](Cc1c[nH]cn1)C(=O)N[C@@H](CCC(=O)O)C(=O)N[C@@H](CC(C)C)C(=O)N[C@@H](C)C(=O)N[C@H](C(=O)N[C@@H](CC(C)C)C(=O)N1CCC[C@H]1C(=O)N[C@@H](CCCNC(=N)N)C(=O)N[C@H](C(=O)N[C@@H](CCC(=O)O)C(=O)N[C@H](C(=O)NCC(=O)N[C@@H](CO)C(=O)N[C@@H](CCC(=O)O)C(=O)N[C@@H](CO)C(=O)N1CCC[C@H]1C(N)=O)[C@@H](C)O)[C@@H](C)O)[C@@H](C)O, also called Ex. #23) [[N-terminal(C18 diacid-gGlu), des1, 30S]mimylin] |
| 2.82 nM | {C20 diacid-γGlu}-ASELSTASLGRLSAELHELSTYPRTETGSGSY-NH2 (SMILES CC(C)C[C@H](NC(=O)[C@H](CO)NC(=O)[C@H](C)NC(=O)[C@@H](NC(=O)[C@H](CO)NC(=O)[C@H](CC(C)C)NC(=O)[C@H](CCC(=O)O)NC(=O)[C@H](CO)NC(=O)[C@H](C)NC(=O)CC[C@H](NC(=O)CCCCCCCCCCCCCCCCCCC(=O)O)C(=O)O)[C@@H](C)O)C(=O)NCC(=O)N[C@@H](CCCNC(=N)N)C(=O)N[C@@H](CC(C)C)C(=O)N[C@@H](CO)C(=O)N[C@@H](C)C(=O)N[C@@H](CCC(=O)O)C(=O)N[C@@H](CC(C)C)C(=O)N[C@@H](Cc1c[nH]cn1)C(=O)N[C@@H](CCC(=O)O)C(=O)N[C@@H](CC(C)C)C(=O)N[C@@H](CO)C(=O)N[C@H](C(=O)N[C@@H](Cc1ccc(O)cc1)C(=O)N1CCC[C@H]1C(=O)N[C@@H](CCCNC(=N)N)C(=O)N[C@H](C(=O)N[C@@H](CCC(=O)O)C(=O)N[C@H](C(=O)NCC(=O)N[C@@H](CO)C(=O)NCC(=O)N[C@@H](CO)C(=O)N[C@@H](Cc1ccc(O)cc1)C(N)=O)[C@@H](C)O)[C@@H](C)O)[C@@H](C)O, also called Ex. #100) [[N-terminal(C20 diacid-gGlu), des1, 9S, 21S, 23Y, 30S, 31G, 33Y]mimylin] |
| 1.7 nM | {C18 diacid-γGlu}-ASELTTAVLGRLSAELHELATLPRTETGTGTP-NH2 (also called Ex. #95) [[N-terminal(C18 diacid-gGlu), des1, 6T, 9V, 30T, 31G, 32T]mimylin] |
| 20.5 nM | {C18 diacid-γGlu}-ASELSTAALGRLSAELHELATLPRTETGSGPP-NH2 (SMILES CC(C)C[C@H](NC(=O)[C@H](C)NC(=O)[C@H](C)NC(=O)[C@@H](NC(=O)[C@H](CO)NC(=O)[C@H](CC(C)C)NC(=O)[C@H](CCC(=O)O)NC(=O)[C@H](CO)NC(=O)[C@H](C)NC(=O)CC[C@H](NC(=O)CCCCCCCCCCCCCCCCC(=O)O)C(=O)O)[C@@H](C)O)C(=O)NCC(=O)N[C@@H](CCCNC(=N)N)C(=O)N[C@@H](CC(C)C)C(=O)N[C@@H](CO)C(=O)N[C@@H](C)C(=O)N[C@@H](CCC(=O)O)C(=O)N[C@@H](CC(C)C)C(=O)N[C@@H](Cc1c[nH]cn1)C(=O)N[C@@H](CCC(=O)O)C(=O)N[C@@H](CC(C)C)C(=O)N[C@@H](C)C(=O)N[C@H](C(=O)N[C@@H](CC(C)C)C(=O)N1CCC[C@H]1C(=O)N[C@@H](CCCNC(=N)N)C(=O)N[C@H](C(=O)N[C@@H](CCC(=O)O)C(=O)N[C@H](C(=O)NCC(=O)N[C@@H](CO)C(=O)NCC(=O)N1CCC[C@H]1C(=O)N1CCC[C@H]1C(N)=O)[C@@H](C)O)[C@@H](C)O)[C@@H](C)O, also called Ex. #75) [[N-terminal(C18 diacid-gGlu), des1, 30S, 31G, 32P]mimylin] |
| 0.651 nM | {C18 diacid-γGlu}-ASELTTAVLGRLSAELHELATLPRTETGSGTP-NH2 (also called Ex. #94) [[N-terminal(C18 diacid-gGlu), des1, 6T, 9V, 30S, 31G, 32T]mimylin] |
| 9.15 nM | {C18 diacid-γGlu}-ASELTTAVLGRLEAELHELTTLPRTETGTGTP-NH2 [[N-terminal(C18 diacid-gGlu), des1, 6T, 9V, 14E, 21T, 30T, 31G, 32T]mimylin] |
| 17.3 nM | {C18 diacid-γGlu}-ASELTTAVLGRLTAELHELETLPRTETGTGTP-NH2 (SMILES CC(C)C[C@H](NC(=O)[C@H](CCC(=O)O)NC(=O)[C@H](C)NC(=O)[C@@H](NC(=O)[C@H](CC(C)C)NC(=O)[C@H](CCCNC(=N)N)NC(=O)CNC(=O)[C@H](CC(C)C)NC(=O)[C@@H](NC(=O)[C@H](C)NC(=O)[C@@H](NC(=O)[C@@H](NC(=O)[C@H](CC(C)C)NC(=O)[C@H](CCC(=O)O)NC(=O)[C@H](CO)NC(=O)[C@H](C)NC(=O)CC[C@H](NC(=O)CCCCCCCCCCCCCCCCC(=O)O)C(=O)O)[C@@H](C)O)[C@@H](C)O)C(C)C)[C@@H](C)O)C(=O)N[C@@H](Cc1c[nH]cn1)C(=O)N[C@@H](CCC(=O)O)C(=O)N[C@@H](CC(C)C)C(=O)N[C@@H](CCC(=O)O)C(=O)N[C@H](C(=O)N[C@@H](CC(C)C)C(=O)N1CCC[C@H]1C(=O)N[C@@H](CCCNC(=N)N)C(=O)N[C@H](C(=O)N[C@@H](CCC(=O)O)C(=O)N[C@H](C(=O)NCC(=O)N[C@H](C(=O)NCC(=O)N[C@H](C(=O)N1CCC[C@H]1C(N)=O)[C@@H](C)O)[C@@H](C)O)[C@@H](C)O)[C@@H](C)O)[C@@H](C)O) [[N-terminal(C18 diacid-gGlu), des1, 6T, 9V, 14T, 21E, 30T, 31G, 32T]mimylin] |
| 0.855 nM | {C18 diacid-γGlu}-ASELSTAVLGRLSAELHELATLPRTETGSGSP-NH2 (SMILES CC(C)C[C@H](NC(=O)[C@H](CCC(=O)O)NC(=O)[C@H](Cc1c[nH]cn1)NC(=O)[C@H](CC(C)C)NC(=O)[C@H](CCC(=O)O)NC(=O)[C@H](C)NC(=O)[C@H](CO)NC(=O)[C@H](CC(C)C)NC(=O)[C@H](CCCNC(=N)N)NC(=O)CNC(=O)[C@H](CC(C)C)NC(=O)[C@@H](NC(=O)[C@H](C)NC(=O)[C@@H](NC(=O)[C@H](CO)NC(=O)[C@H](CC(C)C)NC(=O)[C@H](CCC(=O)O)NC(=O)[C@H](CO)NC(=O)[C@H](C)NC(=O)CC[C@H](NC(=O)CCCCCCCCCCCCCCCCC(=O)O)C(=O)O)[C@@H](C)O)C(C)C)C(=O)N[C@@H](C)C(=O)N[C@H](C(=O)N[C@@H](CC(C)C)C(=O)N1CCC[C@H]1C(=O)N[C@@H](CCCNC(=N)N)C(=O)N[C@H](C(=O)N[C@@H](CCC(=O)O)C(=O)N[C@H](C(=O)NCC(=O)N[C@@H](CO)C(=O)NCC(=O)N[C@@H](CO)C(=O)N1CCC[C@H]1C(N)=O)[C@@H](C)O)[C@@H](C)O)[C@@H](C)O, also called Ex. #76) [[N-terminal(C18 diacid-gGlu), des1, 9V, 30S, 31G]mimylin] |
| 0.821 nM | {C18 diacid-γGlu}-ASELTTAVLGRLSAELHELATLPRTETGSGSP-NH2 (SMILES CC(C)C[C@H](NC(=O)[C@H](CCC(=O)O)NC(=O)[C@H](Cc1c[nH]cn1)NC(=O)[C@H](CC(C)C)NC(=O)[C@H](CCC(=O)O)NC(=O)[C@H](C)NC(=O)[C@H](CO)NC(=O)[C@H](CC(C)C)NC(=O)[C@H](CCCNC(=N)N)NC(=O)CNC(=O)[C@H](CC(C)C)NC(=O)[C@@H](NC(=O)[C@H](C)NC(=O)[C@@H](NC(=O)[C@@H](NC(=O)[C@H](CC(C)C)NC(=O)[C@H](CCC(=O)O)NC(=O)[C@H](CO)NC(=O)[C@H](C)NC(=O)CC[C@H](NC(=O)CCCCCCCCCCCCCCCCC(=O)O)C(=O)O)[C@@H](C)O)[C@@H](C)O)C(C)C)C(=O)N[C@@H](C)C(=O)N[C@H](C(=O)N[C@@H](CC(C)C)C(=O)N1CCC[C@H]1C(=O)N[C@@H](CCCNC(=N)N)C(=O)N[C@H](C(=O)N[C@@H](CCC(=O)O)C(=O)N[C@H](C(=O)NCC(=O)N[C@@H](CO)C(=O)NCC(=O)N[C@@H](CO)C(=O)N1CCC[C@H]1C(N)=O)[C@@H](C)O)[C@@H](C)O)[C@@H](C)O, also called Ex. #85) [[N-terminal(C18 diacid-gGlu), des1, 6T, 9V, 30S, 31G]mimylin] |
| 0.385 nM | {C20 diacid-γGlu}-ASGLSTAALGRLSAELHELATYPRTETGSGSP-NH2 (also called Ex. #79) [[N-terminal(C20 diacid-gGlu), des1, 4G, 23Y, 30S, 31G]mimylin] |
| 0.943 nM | {C18 diacid-γGlu}-ASEVSTAVLGRLSAELHELATLPRTETGSGSP-NH2 (also called Ex. #86) [[N-terminal(C18 diacid-gGlu), des1, 5V, 9V, 30S, 31G]mimylin] |
